{
  "source": "patent US20120027757A1",
  "key": {"[1]": {"target": "IGF-IR expressed on Sf9 insect cells infected with baculovirus (UniProt P08069)", "assay": "flow cytometry on Sf9 insect cells expressing IGF-IR"}, "[2]": {"target": "IR (insulin receptor) expressed on Sf9 insect cells infected with baculovirus (UniProt P06213)", "assay": "flow cytometry on Sf9 insect cells expressing IR"}},
  "data": [
    {"substance": "Anti-IGF-IR (αIR3) (antibody)", "values": [
      {"measurement": "MFI (Mean fluorescence intensity)", "setting": "[1]", "result": 35},
      {"measurement": "MFI (Mean fluorescence intensity)", "setting": "[2]", "result": 32}
    ]}
  ]
}
